According to patent publication US20250084169A1 (published 2025):
Where two headings read alike, the source gives them in different places.

Experiments:
[1] = target: T1, recombinant human Fc gamma RIIa (CD32a) 131R (human, UniProt P12318 36-218)
T1 sequence (looked up): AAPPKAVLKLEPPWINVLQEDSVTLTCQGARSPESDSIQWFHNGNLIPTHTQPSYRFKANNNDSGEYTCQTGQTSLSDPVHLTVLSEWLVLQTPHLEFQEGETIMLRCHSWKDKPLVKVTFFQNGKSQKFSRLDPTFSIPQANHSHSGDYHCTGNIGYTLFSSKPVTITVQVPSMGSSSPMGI

[2] = target: T2, recombinant human Fc gamma RIIa (CD32a) 131H (human, UniProt P12318 36-218)
T2 sequence (looked up): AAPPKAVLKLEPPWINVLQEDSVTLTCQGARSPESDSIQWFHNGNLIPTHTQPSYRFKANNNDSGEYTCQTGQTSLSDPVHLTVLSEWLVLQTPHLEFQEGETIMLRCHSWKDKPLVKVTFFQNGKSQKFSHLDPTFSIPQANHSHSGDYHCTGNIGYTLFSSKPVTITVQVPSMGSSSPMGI

[3] = target: T3, recombinant human Fc gamma RIIb/c (CD32b/c) (human, UniProt P31994 46-217)
T3 sequence (looked up): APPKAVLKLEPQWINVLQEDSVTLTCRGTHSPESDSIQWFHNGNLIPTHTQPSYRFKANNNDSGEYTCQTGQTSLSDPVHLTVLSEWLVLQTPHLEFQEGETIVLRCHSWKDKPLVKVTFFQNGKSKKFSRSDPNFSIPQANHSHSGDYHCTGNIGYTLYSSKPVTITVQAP

[4] = target: T4, recombinant human Fc gamma RIIIa (CD16a) 158V (human, UniProt P08637 17-208)
[5] = target: T5, recombinant human Fc gamma RI (CD64) (human, UniProt P12314 16-288)
[6] = target: T6, recombinant human Fc gamma RIIIb (CD16b) (human, UniProt O75015 17-200)
[7] = target: T7, recombinant human full-length CD20 (human, UniProt P11836 1-297)
T7 sequence (looked up): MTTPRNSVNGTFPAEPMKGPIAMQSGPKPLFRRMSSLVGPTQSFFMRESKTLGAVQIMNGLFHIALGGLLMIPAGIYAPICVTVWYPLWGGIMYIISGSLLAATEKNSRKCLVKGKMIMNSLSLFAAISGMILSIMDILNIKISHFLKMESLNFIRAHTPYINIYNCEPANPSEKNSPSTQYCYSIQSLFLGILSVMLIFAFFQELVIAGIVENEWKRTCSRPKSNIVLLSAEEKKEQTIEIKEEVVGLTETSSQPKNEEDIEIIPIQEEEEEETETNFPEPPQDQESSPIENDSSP

[8] = target: T8, cynomolgus monkey Fc gamma receptor CD16 (cynomolgus monkey, UniProt Q8SPW2 17-208)
[9] = target: T9, recombinant cynomolgus monkey CD20 (cynomolgus monkey, UniProt M4ZHZ6 1-297)
T9 sequence: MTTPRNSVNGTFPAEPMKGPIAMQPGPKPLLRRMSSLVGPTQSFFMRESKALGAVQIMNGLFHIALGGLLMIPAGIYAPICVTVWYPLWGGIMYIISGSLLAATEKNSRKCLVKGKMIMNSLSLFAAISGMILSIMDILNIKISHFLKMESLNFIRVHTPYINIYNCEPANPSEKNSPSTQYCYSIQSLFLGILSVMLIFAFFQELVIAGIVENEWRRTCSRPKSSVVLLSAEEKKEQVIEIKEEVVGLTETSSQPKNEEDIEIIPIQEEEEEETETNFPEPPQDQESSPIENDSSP

[10] = target: T10, recombinant human Fc gamma RIIIa (CD16a) 158F (human, UniProt P08637 17-208)
[11] = target: T4, recombinant human Fc gamma RIIIa …; remark: listed apart in the source
[12] = target: T6, recombinant human Fc gamma RIIIb (CD16b); remark: listed apart in the source
[13] = target: T11, cynomolgus monkey CD20 on cells (cynomolgus monkey, UniProt M4ZHZ6 1-297)
T11 sequence: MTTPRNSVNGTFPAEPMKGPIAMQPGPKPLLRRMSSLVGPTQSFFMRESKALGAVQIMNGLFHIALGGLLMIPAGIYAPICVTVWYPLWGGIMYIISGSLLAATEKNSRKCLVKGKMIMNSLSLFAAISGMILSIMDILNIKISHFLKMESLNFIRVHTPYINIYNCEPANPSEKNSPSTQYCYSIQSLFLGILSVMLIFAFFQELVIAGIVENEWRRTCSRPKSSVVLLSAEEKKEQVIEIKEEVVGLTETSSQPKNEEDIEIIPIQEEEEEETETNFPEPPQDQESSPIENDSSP

[14] = target: T8, cynomolgus monkey Fc gamma receptor CD16; remark: listed apart in the source
[15] = target: T1, recombinant human Fc gamma RIIa (CD32a) …; remark: listed apart in the source
[16] = target: T3, recombinant human Fc gamma RIIb/c …; remark: listed apart in the source
[17] = target: T5, recombinant human Fc gamma RI (CD64); remark: listed apart in the source
[18] = target: T10, recombinant human Fc gamma RIIIa …; remark: listed apart in the source
[19] = target: T1, recombinant human Fc gamma RIIa (CD32a) …; remark: listed apart in the source
[20] = target: T2, recombinant human Fc gamma RIIa (CD32a) …; remark: listed apart in the source
[21] = target: T3, recombinant human Fc gamma RIIb/c …; remark: listed apart in the source
[22] = target: T4, recombinant human Fc gamma RIIIa …; remark: listed apart in the source
[23] = target: T5, recombinant human Fc gamma RI (CD64); remark: listed apart in the source
[24] = target: T6, recombinant human Fc gamma RIIIb (CD16b); remark: listed apart in the source
CD20 Lipoparticles = target: T12, CD20 Lipoparticles (Homo sapiens (Human), UniProt P11836 1-297)
T12 sequence: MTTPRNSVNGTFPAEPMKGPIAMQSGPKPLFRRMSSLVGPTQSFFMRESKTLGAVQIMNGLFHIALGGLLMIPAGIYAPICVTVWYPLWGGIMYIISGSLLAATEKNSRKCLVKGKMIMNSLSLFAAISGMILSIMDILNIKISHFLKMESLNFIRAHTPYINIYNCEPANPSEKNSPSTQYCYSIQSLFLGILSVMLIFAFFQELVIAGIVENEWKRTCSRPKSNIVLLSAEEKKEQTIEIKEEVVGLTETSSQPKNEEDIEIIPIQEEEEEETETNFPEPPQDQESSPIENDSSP

T5 sequence (P12314 16-288 limits assumed): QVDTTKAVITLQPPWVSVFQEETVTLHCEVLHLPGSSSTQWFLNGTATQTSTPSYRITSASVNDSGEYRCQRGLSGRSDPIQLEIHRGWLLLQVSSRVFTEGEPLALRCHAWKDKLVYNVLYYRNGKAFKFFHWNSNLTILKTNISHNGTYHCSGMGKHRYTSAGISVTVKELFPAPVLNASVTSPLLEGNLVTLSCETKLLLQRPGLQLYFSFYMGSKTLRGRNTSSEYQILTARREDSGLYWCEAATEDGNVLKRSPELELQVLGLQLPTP
T6 sequence (O75015 17-200 limits assumed): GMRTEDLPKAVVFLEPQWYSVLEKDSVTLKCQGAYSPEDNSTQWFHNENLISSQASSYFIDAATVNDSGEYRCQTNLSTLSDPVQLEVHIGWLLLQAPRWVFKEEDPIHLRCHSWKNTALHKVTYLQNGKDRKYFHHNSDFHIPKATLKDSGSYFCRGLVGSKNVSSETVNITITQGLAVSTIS
T4 sequence (P08637 17-208 F176V limits assumed): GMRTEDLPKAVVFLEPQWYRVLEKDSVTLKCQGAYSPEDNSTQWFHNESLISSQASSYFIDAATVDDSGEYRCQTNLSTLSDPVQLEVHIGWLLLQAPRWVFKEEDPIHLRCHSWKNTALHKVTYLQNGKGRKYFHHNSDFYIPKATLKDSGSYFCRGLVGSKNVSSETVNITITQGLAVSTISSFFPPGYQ
T10 sequence (P08637 17-208 limits assumed): as the sequence (P08637 17-208 F176V limits assumed) above, with V160F counted along it
T8 sequence (Q8SPW2 17-208 limits assumed): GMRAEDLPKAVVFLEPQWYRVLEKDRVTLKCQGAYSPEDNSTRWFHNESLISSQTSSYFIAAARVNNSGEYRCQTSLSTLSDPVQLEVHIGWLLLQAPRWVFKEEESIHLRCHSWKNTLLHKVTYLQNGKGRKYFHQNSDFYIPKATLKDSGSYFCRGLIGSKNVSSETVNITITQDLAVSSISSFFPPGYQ
Chain of CD19 (target of Table 9) (P15391 20-291): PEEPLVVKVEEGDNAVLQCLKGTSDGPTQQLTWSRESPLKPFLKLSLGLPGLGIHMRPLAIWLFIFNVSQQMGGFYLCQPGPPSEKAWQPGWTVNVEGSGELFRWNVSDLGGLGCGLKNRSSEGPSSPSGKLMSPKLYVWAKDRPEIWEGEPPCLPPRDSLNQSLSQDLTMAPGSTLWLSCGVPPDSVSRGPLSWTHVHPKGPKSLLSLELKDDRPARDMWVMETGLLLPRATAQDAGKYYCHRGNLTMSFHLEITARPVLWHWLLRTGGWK

B1: Rituximab (antibody)
VH: not shown
VL: QIVLSQSPAILSASPGEKVTMTCRASSSVSYIHWFQQKPGSSPKPWIYATSNLASGVPVRFSGSGSGTSYSLTISRVEAEDAATYYCQQWTSNPPTFGGGTKLEIKRTVAAPSVFIFPPSDEQLKSGTASVVCLLNNFYPREAKVQWKVDNALQSGNSQESVTEQDSKDSTYSLSSTLTLSKADYEKHKVYACEVTHQGLSSPVTKSFNRGEC
- Kd [1]: 1250 nM
- Kd [2]: 892 nM
- Kd [3]: 1520 nM
- Kd [4]: 715 nM
- Kd [5]: 52.8 nM
- Kd [6]: 1530 nM
- Kd [7]: 0.46 nM
- Kd [8]: 425 nM
- Kd [9]: 1.1 nM
- Kd [10]: 1520 nM
- Kd [11]: 309 nM
- Kd [12]: 4320 nM
- EC50 [13]: 0.61 nM
- Kd [14]: 130 nM
- Kd [15]: 635 nM
- Kd [16]: 8880 nM
- Kd [17]: 0.0547 nM
- Kd [18]: 1530 nM
- Kd [19]: 2330 nM
- Kd [20]: 1740 nM
- Kd [21]: 6680 nM
- Kd [22]: 595 nM
- Kd [23]: 11.3 nM
- Kd [24]: 4090 nM
- Kd (CD20 Lipoparticles): < 0.001 nM

B2: B19c66AAC9 (antibody, human IgG1, kappa)
light: not shown
heavy: QVQLQQSGAELVRPGSSVKISCKASGYAFSSYWMNWVKQRPGQGLEWIGQIWPGDGDTNYNGKFKGKATLTADESSSTAYMQLSSLASEDSAVYFCARRETTTVGRYYYAMDYWGQGTTVTVSSASTKGPSVFPLAPSSKSTSGGTAALGCLVKDYFPEPVTVSWNSGALTSGVHTFPAVLQSSGLYSLSSVVTVPSSSLGTQTYICNVNHKPSNTKVDKKVEPKSCDKTHTCPPCPAPKRRGGPSVFLFPPKPKDTLMISRTPEVTCVVVDVSHEDPEVKFNWYVDGVEVHNAKTKPREEQYNSTYRVVSVLTVLHQDWLNGKEYKCKVSNKALPAPIEKTISKAKGQPREPQVYVLPPSRDELTKNQVSLLCLVKGFYPSDIAVEWESNGQPENNYLTWPPVLDSDGSFFLYSKLTVDKSRWQQGNVFSCSVMHEALHNHYTQKSLSLSPGK
chain: CPPCPAPEDEGGPSVFLFPPKPKDTLMISRTPEVTCVVVDVSHEDPEVKFNWYVDGVEVHNAKTKPREEQYNSTYRVVSVLTVLHQDWLNGKEYKCKVSNKALPAPIEKTISKAKGQPREPQVYVYPPSRDELTKNQVSLTCLVKGFYPSDIAVEWESNGQPENNYKTTPPVLDSDGSFALVSKLTVDKSRWQQGNVFSCSVMHEALHNHYTQKSLSLSPGK
- Kd (CD19 (target of Table 9)): 21 nM
